B1: Eukaryotic translation initiation factor 2-alpha kinase 1 (Mus musculus), Q9Z2R9 (parent)
chain: MLGGSSVDGERDTDDDAAGAVAAPPAIDFPAEVSDPKYDESDVPAELQVLKEPLQQPTFPFLVANQLLLVSLLEHLSHVHEPNPLHSKQVFKLLCQTFIKMGLLSSFTCSDEFSSLRLHHNRAITHLMRSAKERVRQDPCQDNSYMQKIRSREIAFEAQTSRYLNEFEELAILGKGGYGRVYKVRNKLDGQHYAIKKILIKSATKTDCMKVLREVKVLAGLQHPNIVGYHTAWIEHVHVVQPQDRVPIQLPSLEVLSEQEGDRDQGGVKDNESSSSIVFAELTPEKEKPFGESEVKNENNNLVSYTANLVVRNSSESESSIELQEDGLTDLSVRPVVRHQLPLGHSSELEGNFTSTDESSEGNLNLLGQTEVRYHLMLHIQMQLCELSLWDWITERNKRSREYVDEAACPYVMASVATKIFQELVEGVFYIHNMGIVHRDLKPRNIFLHGPDQQVKIGDFGLACADIIQNADWTNRNGKGTRTHTSRVGTCLYASPEQLEGSQYDAKSDMYSLGVILLELFQPFGTEMERATVLTGVRTGRIPESLSKRCPVQAKYIQLLTGRNVSQRPSALQLLQSELFQTTGNVNLTLQMKIIEQEKEIEELKKQLSLLSQDRGLKR

Variants of: B1
Settings: with if2a_mouse Eif2s1, Q6ZWX6
Chain of if2a_mouse Eif2s1, Q6ZWX6 (Q6ZWX6 whole entry): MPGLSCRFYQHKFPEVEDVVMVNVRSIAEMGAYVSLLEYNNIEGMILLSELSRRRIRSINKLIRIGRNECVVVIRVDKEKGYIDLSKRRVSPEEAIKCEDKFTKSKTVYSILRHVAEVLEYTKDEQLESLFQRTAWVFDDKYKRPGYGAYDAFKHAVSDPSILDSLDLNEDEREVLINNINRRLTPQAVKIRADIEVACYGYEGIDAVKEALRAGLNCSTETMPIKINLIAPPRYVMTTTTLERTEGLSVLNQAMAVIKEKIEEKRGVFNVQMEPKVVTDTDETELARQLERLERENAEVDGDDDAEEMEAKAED
H119A was tested, and the “effect of a mutation on the interaction” value was “decreasing interaction”.
For H120A, the “effect of a mutation on the interaction” value was “decreasing interaction”.

Variants of: B1
Settings: with if2a_mouse Eif2s1, Q6ZWX6
Remark: another data set of the same source
In the case of K196R, the “effect of a mutation on the interaction” value is reported as “disrupting interaction”.

Variants of: B1
Settings: with if2a_mouse Eif2s1, Q6ZWX6
Remark: another data set of the same source
In the case of S502A, the “effect of a mutation on the interaction” value is reported as “disrupting interaction”.

Variants of: B1
Settings: with if2a_mouse Eif2s1, Q6ZWX6
Remark: another data set of the same source
In the case of T490A, the “effect of a mutation on the interaction” value is reported as “disrupting interaction”.

Variants of: B1
Settings: with if2a_mouse Eif2s1, Q6ZWX6
Remark: another data set of the same source
Y193F was tested, and the “effect of a mutation on the interaction” value was “decreasing interaction”.

Variants of: B1
Settings: with if2a_mouse Eif2s1, Q6ZWX6
Remark: another data set of the same source
T485A was tested, and the “effect of a mutation on the interaction” value was “decreasing interaction”.

Source: IntAct's records for PubMed 21223507
